Test results from patent publication US12297272B2, “IgG Fc variants for veterinary use” (Elanco US Inc., priority 2017, dated 2025).
Where a chain is given by its changes, count along the chain named.

B1: equine IgG4 Fc: wild-type equine IgG4 Fc polypeptide (protein)
chain: VGPSVFIFPPKPKDVLMISRTPTVTCVVVDVGHDFPDVQFNWYVDGVETHTATTEPKQEQFNSTYRVVSVLPIQHKDWLSGKEFKCKVNNKALPAPVERTISAPTGQPREPQVYVLAPHRDELSKNKVSVTCLVKDFYPPDIDIEWKSNGQPEPETKYSTTPAQLDSDGSYFLYSKLTVETNRWQQGTTFTCAVMHEALHNHYTEKSVSKSPGK
modifications: Wild-type equine IgG4 Fc, Protein A +, C1q +
notes: wild-type equine IgG4 Fc polypeptide
B2: equine IgG7 Fc: wild-type equine IgG7 Fc polypeptide (protein)
chain: B1 chain with F61N, V70I, P72A, K91Q, E98Q, R99K, A103K, R120P, S167G
modifications: Wild-type equine IgG7 Fc, Protein A +, C1q +
notes: wild-type equine IgG7 Fc polypeptide
B3: equine IgG3 Fc: wild-type equine IgG3 Fc polypeptide (protein)
chain: GGPSVFIFPPKPKDVLMITRMPEVTCLVVDVSHDSSDVLFTWYVDGTEVKTAKTMPNEEQNNSTYRVVSVLRIQHQDWLNGKKFKCKVNNQALPAPVERTISKATGQTRVPQVYVLAPHPDELSKNKVSVTCLVKDFYPPDITVEWQSNEHPEPEGKYRTTEAQKDSDGSYFLYSKLTVEKDRWQQGTTFTCVVMHEALHNHVMQKNISKNPGK
modifications: Wild-type equine IgG3 Fc, Protein A +, C1q+
notes: wild-type equine IgG3 Fc polypeptide
B4: equine IgG1 Fc: wild-type equine IgG1 Fc polypeptide (protein)
chain: GGPSVFLFPPNPKDTLMITRTPEVTCVVVDVSQENPDVKFNWYMDGVEVRTATTRPKEEQFNSTYRVVSVLRIQHQDWLSGKEFKCKVNNQALPQPIERTITKTKGRSQEPQVYVLAPHPDESKKSKVSVTCLVKDFYPPEINIEWQSNGQPELETKYSTTQAQQDSDGSYFLYSKLSVDRNRWQQGTTFTCGVMHEALHNHYTQKNVSKNPGK
modifications: Wild-type equine IgG1 Fc , Protein A +, C1q +
notes: wild-type equine IgG1 Fc polypeptide
B5: feline IgG1a Fc: wild-type feline IgG1a Fc polypeptide (protein)
chain 1: RKTDHPPGPKTGEGPKCPPPEMLGGPSIFIFPPKPKDTLSISRTPEVTCLVVDLGPDDSDVQITWFVDNTQVYTAKTSPREEQFNSTYRVVSVLPILHQDWLKGKEFKCKVNSKSLPSPIERTISKAKGQPHEPQVYVLPPAQEELSENKVSVTCLIKSFHPPDIAVEWEITGQPEPENNYRTTPPQLDSDGTYFVYSKLSVDRSHWQRGNTYTCSVSHEALHSHHTQKSLTQSPGK
chain 2: B5 chain 1 with T11P, G12C, E13D, G14C
modifications: Alternative wild-type feline IgG1a Fc, Protein A +, C1q +; Wild-type feline IgG1a Fc, Protein A +, C1q +
notes: wild-type feline IgG1a Fc polypeptide
B6: feline IgG1b Fc: wild-type feline IgG1b Fc polypeptide (protein)
chain 1: B5 chain 1 with A127D, K158E, S159G, H161Y, P163S, V196L, K199R, H206R
chain 2: RKTDHPPGPKPCDCPKCPPPEMLGGPSIFIFPPKPKDTLSISRTPEVTCLVVDLGPDDSDVQITWFVDNTQVYTAKTSPREEQFNSTYRVVSVLPILHQDWLKGKEFKCKVNSKSLPSPIERTISKDKGQPHEPQVYVLPPAQEELSENKVSVTCLIEGFYPSDIAVEWEITGQPEPENNYRTTPPQLDSDGTYFLYSRLSVDRSRWQRGNTYTCSVSHEALHSHHTQKSLTQSPGK
modifications: Alternative wild-type feline IgG1b Fc, Protein A +, C1q +; Wild-type feline IgG1b Fc, Protein A +, C1q +
notes: wild-type feline IgG1b Fc polypeptide
B7: equine IgG5 Fc: wild-type equine IgG5 Fc polypeptide (protein)
chain: GGPSVFIFPPKPKDVLMISRKPEVTCVVVDLGHDDPDVQFTWFVDGVETHTATTEPKEEQFNSTYRVVSVLPIQHQDWLSGKEFKCSVTSKALPAPVERTISKAKGQLRVPQVYVLAPHPDELAKNTVSVTCLVKDFYPPEIDVEWQSNEHPEPEGKYSTTPAQLNSDGSYFLYSKLSVETSRWKQGESFTCGVMHEAVENHYTQKNVSHSPGK
modifications: Wild-type equine IgG5 Fc, Protein A -, C1q -
notes: wild-type equine IgG5 Fc polypeptide
B8: equine IgG6 Fc: wild-type equine IgG6 Fc polypeptide (protein)
chain: GRPSVFIFPPNPKDTLMISRTPEVTCVVVDVSQENPDVKFNWYVDGVEAHTATTKAKEKQDNSTYRVVSVLPIQHQDWRRGKEFKCKVNNRALPAPVERTITKAKGELQDPQVYILAPHPDEVTKNTVSVTCLVKDFYPPDINVEWQSNEEPEPEVKYSTTPAQLDGDGSYFLYSKLTVETDRWEQGESFTCVVMHEAIRHTYRQKSITNFPGK
modifications: Wild-type equine IgG6 Fc, Protein A -, C1q -
notes: wild-type equine IgG6 Fc polypeptide
B9: equine IgG2 Fc: wild-type equine IgG2 Fc polypeptide (protein)
chain 1: DMSKCPKCPAPELLGGPSVFIFPPNPKDALMISRTPVVTCVVVNLSDQYPDVQFSWYVDNTEVHSAITKQREAQFNSTYRVVSVLPIQHQDWLSGKEFKCSVTNVGVPQPISRAISRGKGPSRVPQVYVLPPHPDELAKSKVSVTCLVKDFYPPDISVEWQSNRWPELEGKYSTTPAQLDGDGSYFLYSKLSLETSRWQQVESFTCAVMHEALHNHFTKTDISESLGK
chain 2: GGPSVFIFPPNPKDALMISRTPVVTCVVVNLSDQYPDVQFSWYVDNTEVHSAITKQREAQFNSTYRVVSVLPIQHQDWLSGKEFKCSVTNVGVPQPISRAISRGKGPSRVPQVYVLPPHPDELAKSKVSVTCLVKDFYPPDISVEWQSNRWPELEGKYSTTPAQLDGDGSYFLYSKLSLETSRWQQVESFTCAVMHEALHNHFTKTDISESLGK
modifications: Synthetic Variant equine Fc IgG2 (with equine IgG1 hinge), Protein A - , C1q -; Wild-type equine IgG2 Fc, Protein A -, C1q -
notes: wild-type equine IgG2 Fc polypeptide
Throughout, for C1q binding: key: (−) denotes low or no measurable binding activity.

These molecules were tested against Protein A (Staphylococcus aureus, UniProt P38507) (assay: not given). Conditions: not given.
Method: In some embodiments, the KD of an IgG Fc polypeptide, such as a variant IgG Fc polypeptide, to Protein A or to C1q or to CD16 is measured by using biolayer interferometry assays using a biosensor, such as an Octet® System (Pall ForteBio LLC, Fremont, CA) according to the supplier's instructions. In brief, biotinylated Protein A or C1q or CD16 is bound to the sensor tip and the association of IgG Fc polypeptide is monitored for a specified time or until steady state is reached. Dissociation may be monitored for a specified time or until steady state is reached. A buffer only blank curve is subtracted to correct for any drift. The data are fit to a 2:1 binding model using ForteBio data analysis software to determine association rate constant (kon), dissociation rate constant (koff), and the Kd. The equilibrium dissociation constant (KD) is calculated as the ratio of koff/kon. The term “kon” refers to the rate constant for association of a molecule X to its partner Y and the term “koff” refers to the rate constant for dissociation of a molecule X or partner Y from the molecule X/partner Y complex.
Binding analysis may be performed using an Octet biosensor. Briefly, the target molecule (e.g., Protein A, C1q, CD16, etc.) may be biotinylated and free unreacted biotin removed (e.g., by dialysis). The biotinylated target molecule is captured on streptavidin sensor tips. Association of the target molecule with various concentrations (e.g., 10 μg/mL) of IgG Fc polypeptide is monitored for a specified time or until steady state is reached. Dissociation is monitored for a specified time or until steady state is reached. A buffer only blank curve may be subtracted to correct for any drift. The data are fit to a 1:1 binding model using ForteBio™ data analysis software to determine the kon, koff, and the Kd.
B1 was tested, and the “Protein A binding affinity” value was “have Protein A binding affinity”.
For B2, the “Protein A binding affinity” value was “have Protein A binding affinity”.
In the case of B3, the “Protein A binding affinity” value is reported as “have Protein A binding affinity”.
In the case of B4, the “Protein A binding affinity” value is reported as “have Protein A binding affinity”.
For B5, the “Protein A binding affinity” value was “have Protein A binding affinity”.
B6 was tested, and the “Protein A binding affinity” value was “have Protein A binding affinity”.
With B7 the “Protein A binding affinity” value was “weak or no measurable Protein A binding affinity”.
In the case of B8, the “Protein A binding affinity” value is reported as “weak or no measurable Protein A binding affinity”.
For B9, the “Protein A binding affinity” value was “weak or no measurable Protein A binding affinity”.

Same assay, conditions: Wild-type Equine IgG Fc
In the case of B7, the “Protein A Binding” value is reported as “−”.
For B8, the “Protein A Binding” value was “−”.
For B9, the “Protein A Binding” value was “−”.

The molecules below were run against C1q (Homo sapiens, UniProt P02745+P02746+P02747) (assay: C1q binding of IgG Fc polypeptides (Octet biolayer interferometry described)). Conditions: not given.
C1q, sequence (P02745 23-245): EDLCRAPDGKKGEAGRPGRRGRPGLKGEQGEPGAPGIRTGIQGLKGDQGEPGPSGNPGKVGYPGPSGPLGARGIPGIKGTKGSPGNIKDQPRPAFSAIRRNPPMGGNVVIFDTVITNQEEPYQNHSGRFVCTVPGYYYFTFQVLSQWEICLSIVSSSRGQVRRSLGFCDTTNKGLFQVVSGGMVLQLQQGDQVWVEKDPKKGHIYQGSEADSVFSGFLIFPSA
C1q, sequence (P02746 28-253): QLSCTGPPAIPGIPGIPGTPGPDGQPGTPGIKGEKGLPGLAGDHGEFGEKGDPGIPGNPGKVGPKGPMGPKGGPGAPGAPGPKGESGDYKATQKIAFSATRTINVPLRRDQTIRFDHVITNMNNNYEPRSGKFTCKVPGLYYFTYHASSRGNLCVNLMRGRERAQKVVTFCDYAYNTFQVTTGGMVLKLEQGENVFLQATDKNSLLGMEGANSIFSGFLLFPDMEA
C1q, sequence (P02747 29-245): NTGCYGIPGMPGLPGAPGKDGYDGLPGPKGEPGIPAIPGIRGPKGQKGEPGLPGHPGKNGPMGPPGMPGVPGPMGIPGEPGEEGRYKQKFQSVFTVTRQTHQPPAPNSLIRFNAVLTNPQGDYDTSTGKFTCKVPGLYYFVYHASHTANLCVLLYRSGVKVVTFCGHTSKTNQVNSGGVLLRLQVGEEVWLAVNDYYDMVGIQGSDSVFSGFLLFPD
From the text: Binding analysis may be performed using an Octet biosensor.
In the case of B1, the “binding affinity to C1q” value is reported as “bind to C1q”.
In the case of B2, the “binding affinity to C1q” value is reported as “bind to C1q”.
For B3, the “binding affinity to C1q” value was “bind to C1q”.
In the case of B4, the “binding affinity to C1q” value is reported as “bind to C1q”.
With B5 the “binding affinity to C1q” value was “bind to C1q”.
B6 was tested, and the “binding affinity to C1q” value was “bind to C1q”.
B7 was tested, and the “binding affinity to C1q” value was “weak or no measurable binding affinity to C1q”.
With B8 the “binding affinity to C1q” value was “weak or no measurable binding affinity to C1q”.
For B9, the “binding affinity to C1q” value was “weak or no measurable binding affinity to C1q”.

Same assay, conditions: Wild-type Equine IgG Fc
In the case of B7, the “C1q Binding” value is reported as “−”.
In the case of B8, the “C1q Binding” value is reported as “−”.
B9 was tested, and the “C1q Binding” value was “−”.
